Read-outs that look alike come from different tables or passages of the source.

What is called EC50 (read off the curve) is the midpoint of the concentration-response curve.

The target in assay [1] is T1, hCDH6aa54-615 APPavi (human, UniProt P55285 54-615).
T1 sequence: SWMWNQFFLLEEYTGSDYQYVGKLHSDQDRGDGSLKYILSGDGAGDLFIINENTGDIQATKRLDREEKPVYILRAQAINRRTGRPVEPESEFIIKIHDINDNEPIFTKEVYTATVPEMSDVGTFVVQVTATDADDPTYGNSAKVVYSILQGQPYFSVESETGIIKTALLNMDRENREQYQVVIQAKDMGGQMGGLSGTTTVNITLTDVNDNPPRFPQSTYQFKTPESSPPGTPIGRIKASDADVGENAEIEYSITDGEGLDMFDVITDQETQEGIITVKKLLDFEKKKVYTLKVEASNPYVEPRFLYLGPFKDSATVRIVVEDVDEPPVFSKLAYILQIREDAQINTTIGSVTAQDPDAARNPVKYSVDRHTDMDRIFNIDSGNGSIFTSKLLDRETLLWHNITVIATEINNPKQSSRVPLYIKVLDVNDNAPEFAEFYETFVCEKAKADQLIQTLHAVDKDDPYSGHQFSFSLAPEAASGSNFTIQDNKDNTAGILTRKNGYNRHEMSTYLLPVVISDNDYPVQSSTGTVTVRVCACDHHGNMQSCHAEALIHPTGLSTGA
Nature of the assay: SPR binning.

Another assay deals with T2, human CDH6 on cells (human, UniProt P55285 54-790).
T2 sequence: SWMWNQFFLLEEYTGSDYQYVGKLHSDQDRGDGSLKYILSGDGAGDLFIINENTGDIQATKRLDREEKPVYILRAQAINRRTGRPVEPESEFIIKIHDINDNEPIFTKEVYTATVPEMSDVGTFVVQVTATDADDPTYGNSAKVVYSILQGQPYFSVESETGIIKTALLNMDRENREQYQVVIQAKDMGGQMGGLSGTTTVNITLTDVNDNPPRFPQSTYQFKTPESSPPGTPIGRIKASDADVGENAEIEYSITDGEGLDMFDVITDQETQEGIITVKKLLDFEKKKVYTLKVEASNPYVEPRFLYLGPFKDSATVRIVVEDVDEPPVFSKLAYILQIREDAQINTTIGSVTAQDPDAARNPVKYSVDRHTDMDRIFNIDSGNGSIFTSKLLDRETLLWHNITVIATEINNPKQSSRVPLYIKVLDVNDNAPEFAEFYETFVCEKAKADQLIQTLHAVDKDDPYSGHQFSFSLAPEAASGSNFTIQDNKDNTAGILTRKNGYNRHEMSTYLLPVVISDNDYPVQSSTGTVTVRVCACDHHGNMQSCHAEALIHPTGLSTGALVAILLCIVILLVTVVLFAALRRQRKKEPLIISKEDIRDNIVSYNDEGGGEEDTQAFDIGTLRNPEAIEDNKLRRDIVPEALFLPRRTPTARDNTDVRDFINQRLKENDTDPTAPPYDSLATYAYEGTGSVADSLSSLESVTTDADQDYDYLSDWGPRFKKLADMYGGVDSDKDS
Description: FACS on CHO-TO-humanCDH6 cells plus tetracycline.

Another assay deals with T3, rat CDH6 on cells (rat, UniProt P55280 54-789).
T3 sequence (looked up): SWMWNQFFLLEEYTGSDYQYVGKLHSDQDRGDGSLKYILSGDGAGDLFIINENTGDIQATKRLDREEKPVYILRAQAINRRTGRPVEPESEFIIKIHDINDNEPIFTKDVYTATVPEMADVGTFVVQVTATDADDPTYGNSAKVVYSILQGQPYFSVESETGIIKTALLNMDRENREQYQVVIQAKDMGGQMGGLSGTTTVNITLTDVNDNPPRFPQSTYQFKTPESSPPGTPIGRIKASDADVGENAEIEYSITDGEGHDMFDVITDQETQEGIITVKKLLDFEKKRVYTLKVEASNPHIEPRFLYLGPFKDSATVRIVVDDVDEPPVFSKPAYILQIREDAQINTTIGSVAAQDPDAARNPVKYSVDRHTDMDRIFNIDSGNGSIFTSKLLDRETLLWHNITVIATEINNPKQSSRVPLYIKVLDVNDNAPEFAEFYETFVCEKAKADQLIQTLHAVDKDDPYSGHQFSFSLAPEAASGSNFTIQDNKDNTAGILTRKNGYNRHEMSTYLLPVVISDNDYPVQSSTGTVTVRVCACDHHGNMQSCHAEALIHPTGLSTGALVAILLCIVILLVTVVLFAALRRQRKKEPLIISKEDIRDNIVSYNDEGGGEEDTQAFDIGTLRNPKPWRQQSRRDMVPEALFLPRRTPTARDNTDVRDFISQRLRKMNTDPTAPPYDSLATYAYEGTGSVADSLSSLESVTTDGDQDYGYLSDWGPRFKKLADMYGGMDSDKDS
Description: FACS on CHO-ratCDH6 cells.

The target of assay [2] is T1, hCDH6aa54-615 APPavi. Nature of the assay: SPR binning. The source holds these as a separate data set.
In assay [3] the target is T1, hCDH6aa54-615 APPavi. Nature of the assay: SPR binning. The source holds these as a separate data set.
Assay [4] concerns the target T1, hCDH6aa54-615 APPavi. Nature of the assay: SPR binning. The source holds these as a separate data set.

B1: NOV0712 (antibody, human IgG1, kappa, V domains shown)
VH: QVQLLESGGGLVQPGGSLRLSCAASGFTFSSHGMHWVRQAPGKGLEWVSVISGSGSNTGYADSVKGRFTISRDNSKNTLYLQMNSLRAEDTAVYYCARQWGSYAFDSWGQGTLVTVSS
VL: DIQMTQSPSSLSASVGDRVTITCRASQSISSYLNWYQQKPGKAPKLLIYAVSTLQSGVPSRFSGSGSGTDFTLTISSLQPEDFATYYCQQSGTFPPTTFGQGTKVEIKR
In the case of B1, the “response of secondary antibody on primary antibody-CDH6 complex” value with hCDH6aa54-615 APPavi [1] worked out at 5.12; in the assay with hCDH6aa54-615 APPavi [2], 16.5; with hCDH6aa54-615 APPavi [3], 24.7; with hCDH6aa54-615 APPavi [4], 6. Also, the concentration for a half-maximal effect (EC50 (read off the curve)) is approximately 0.9 nM with human CDH6 on cells and approximately 1 nM with rat CDH6 on cells.

The record behind these values is patent US20170224836A1 (Novartis, published 2017).
